# How the values were obtained:
# [1] = biological target: T1, Lambda integrase (Int) (bacteriophage lambda) (UniProt P03700); test: cell_activity; details: Xis, IHF
# T1 sequence: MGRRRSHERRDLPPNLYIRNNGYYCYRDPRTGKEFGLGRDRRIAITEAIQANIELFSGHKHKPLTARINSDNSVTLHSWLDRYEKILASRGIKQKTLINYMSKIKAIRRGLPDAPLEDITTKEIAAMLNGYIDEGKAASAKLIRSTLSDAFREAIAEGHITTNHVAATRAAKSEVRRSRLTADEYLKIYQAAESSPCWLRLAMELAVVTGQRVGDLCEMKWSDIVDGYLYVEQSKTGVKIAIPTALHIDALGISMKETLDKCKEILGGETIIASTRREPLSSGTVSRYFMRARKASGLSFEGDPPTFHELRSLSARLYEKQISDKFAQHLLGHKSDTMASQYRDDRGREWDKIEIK
# [2] = biological target: Cre recombinase (bacteriophage P1) (UniProt P06956); test: cell_activity; details: background 140 without Cre; 37 C; 19/24 correct product
# UniProt P06956, sequence (P06956 whole entry): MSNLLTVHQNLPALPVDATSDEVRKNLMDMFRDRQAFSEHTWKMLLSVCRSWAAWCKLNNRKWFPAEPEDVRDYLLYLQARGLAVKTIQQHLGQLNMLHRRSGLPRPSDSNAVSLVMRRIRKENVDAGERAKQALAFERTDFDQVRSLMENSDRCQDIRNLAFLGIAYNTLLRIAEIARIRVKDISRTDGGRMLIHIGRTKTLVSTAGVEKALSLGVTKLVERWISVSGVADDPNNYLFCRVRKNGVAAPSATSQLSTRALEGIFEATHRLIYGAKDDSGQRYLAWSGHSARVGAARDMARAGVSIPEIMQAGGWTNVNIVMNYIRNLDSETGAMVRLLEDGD
Substance,"activity ([1]; partner attR'1 (N5), Cre, background 1) [colonies]","activity ([1]; partner attR'2 (N6), Cre) [colonies]","activity ([1]; partner attR'wt, Cre (loxP for second recombination), background 1) [colonies]",activity [2] [colonies]
attL wt,4,0,147,–
loxP / loxP 511 plasmids,–,–,–,760

# Source: US20040253631
